Assay [1] addresses TFIIH p62 subunit PH domain, 1-108 (UniProt P32780). Description: real-time NMR of complex during CK2 reaction. The conditions noted are these: reference: complex before CK2 addition; sites S129.
The target in assay [2] is TFIIH p62 PH (Homo sapiens) (UniProt P32780). Briefly: ITC. The conditions noted are these: cited from earlier work.
Assay [3] has the same target. Briefly: ITC. The conditions noted are these: cited from earlier work. This is another data set of the same source.
For assay [4] the target is unchanged. Description: ITC. The conditions noted are these: cited from earlier work. This is another data set of the same source.
Assay [5] has as its target TFIIH p62 subunit PH domain, 1-108 (UniProt P32780). Briefly: real-time NMR of complex during GRK5 reaction. The conditions noted are these: reference: complex before GRK5 addition; sites T55.
Assay [6] shares this target. Description: real-time NMR of complex during JNK2α2 reaction. The conditions noted are these: reference: Thr55-phosphorylated complex before JNK2α2; sites S46.

As for “XPC AF, 109-156 (from UniProt Q01831) complex after CK2 reaction”, the “binding against the reference” value in assay [1] is given as “stronger”. Broadly, the Kd is a measure of binding affinity in units of concentration. Regarding p53 TAD2 (from UniProt P04637), the Kd in assay [2] is 5 µM; in assay [3], 1 µM; in assay [4] it was 6 µM. Turning to “p53 TAD, 1-73 (from UniProt P04637) complex after GRK5 reaction”, the “binding against the reference” value in assay [5] is recorded as “stronger”.

In the case of “p53 TAD, 1-73 (from UniProt P04637) same complex after JNK2α2 reaction”, the “binding against the reference” value in assay [6] is “stronger”.

The values above are taken from publication PMC4753521.
